# Assay results reported in patent US20200102402A1 (ZYMEDI, published 2020).
# B1: N5 scFv (scFv)
# scFv: EVQLLESGGGLVQPGGSLRLSCAASGFTFSDYAMSWVRQAPGKGLEWVSWIYSGSGNKYYADSVKGRFTISRDNSKNTLYLQMNSLRAEDTAVYYCARMGLDFDYWGQGTLVTVSSGGGGSGGGGSGGGGSQSVLTQPPSASGTPGQRVTISCTGSSSNIGNNYVSWYQQLPGTAPKLLIYDDNQRPSGVPDRFSGSKSGTSASLAISGLRSEDEADYYCGTWDDSLSAYVFGGGTKLTVL
# notes: HA-tagged scFv purified on Ni-NTA; also called scFv N5 clone
# B2: N5 IgG (antibody, V domains shown)
# VH: EVQLLESGGGLVQPGGSLRLSCAASGFTFSDYAMSWVRQAPGKGLEWVSWIYSGSGNKYYADSVKGRFTISRDNSKNTLYLQMNSLRAEDTAVYYCARMGLDFDYWGQGTLVTVSS
# VL: QSVLTQPPSASGTPGQRVTISCTGSSSNIGNNYVSWYQQLPGTAPKLLIYDDNQRPSGVPDRFSGSKSGTSASLAISGLRSEDEADYYCGTWDDSLSAYVFGGGTKLTVL
# notes: IgG made from the scFv variable regions
# Assays:
# [1] = target: T1, KRS fragment with deletion of amino acids at positions 1-71 in the N-terminus (human, UniProt Q15046 72-597); assay: western blotting of lysate of transformed A549 cells
# T1 construct: also called fragment 1; denoted by 1
# Description: As described above, the scFv antibodies extracted from the periplasm were used to investigate using western blotting whether the scFv antibodies bound to the full-length KRS or respective KRS N-terminal fragments. Then, 30 μg of HCT116 cell lysate was electrophoresed through SDS PAGE, transferred onto PVDF membrane, and then blocked with 3% skim milk. Thereafter, the extracted scFv antibodies were added at 1.0 μg/μl, followed by incubation for 1 h. The unbound scFv antibodies were washed out, and for detection, the scFv binding with antigens were incubated with anti-HA secondary antibodies linked with horseradish peroxidase (HRP), and film sensitization was carried out using ECL reagent as a substrate in a dark room. The sensitized bands were compared with standard molecule markers to identify bands corresponding to sizes of the full-length KRS and the respective fragments.
# [2] = target: T2, myc-KRS T52D (active mutant) (human, UniProt Q15046 2-597); assay: Immunofluorescence on A549 cells transfected with Myc tagged KRS-T52D, fixed with paraformaldehyde
# T2 construct: Active mutant whose N-terminal region is exposed on the cell membrane; also called KRS-T52D mutant; T52D-KRS
# Description: After incubation for 24 h, the cells were incubated using serum-free media (RPMI 1640 media) at 37° C. for 1 h. Thereafter, the cells were treated with 10 μg/ml laminin (L2020; Sigma) and then incubated at 37° C. for 1 h.
# The prepared samples were washed with PBS (4° C.), fixed by the treatment with 4% paraformaldehyde for 10 min, and then washed. The samples were blocked with CAS block for 10 min, and treated with the scFv and Myc antibodies for 2 h. Thereafter, the unbound antibodies were washed out, and incubated with secondary antibodies for 1 h in a dark room. DAPI staining was performed for 10 min before mounting.
# [3] = target: T3, KRS fragment composed of amino acid residues 1-200 in the N-terminus (human, UniProt Q15046 1-200); assay: Western blot on lysate of A549 cells transformed with the KRS fragment 1-200 (2), probed with the scFv
# T3 construct: also called fragment 2; denoted by 2
# [4] = target: T4, human lysyl-tRNA synthetase (KRS), full-length (human, UniProt Q15046 1-597); assay: Western blot on lysate of A549 cells transformed with full-length KRS (F), probed with the scFv
# T4 construct: also called native KRS; full-length KRS
# KRS 1-207 aa = target: T5, KRS 1-207 aa (human, UniProt Q15046 1-207); assay: SPR Biacore 2000, KRS 1-207 immobilised on CM5, antibody 6.25-100 nM as analyte
# T5 construct: also called KRS N-terminal region (SPR antigen)
# Description: After KRS was immobilized on a sensor chip (CM5, GE healthcare, US), antibody proteins (6.25-100 nM), which were serially diluted with HES buffer solution (10 mM HEPES, pH 7.4, 150 mM NaCl, 3 mM EDTA, 0.005% surfactant P20), were allowed to flow at a rate of 30 μl/min for 3 min, and 1 M NaCl/20 mM NaOH was allowed to flow at a rate of 30 μl/min for 3 min, thereby inducing the dissociation of proteins bound to the antigen. Mock IgG was used as control. Specific experiment conditions are as follows:
# The affinity was obtained from the kinetic rate constants (ka and kd) and equilibrium dissociation constants (KD) by using BIA evaluation ver. 3.2 software.
# T5 sequence (Q15046 1-207): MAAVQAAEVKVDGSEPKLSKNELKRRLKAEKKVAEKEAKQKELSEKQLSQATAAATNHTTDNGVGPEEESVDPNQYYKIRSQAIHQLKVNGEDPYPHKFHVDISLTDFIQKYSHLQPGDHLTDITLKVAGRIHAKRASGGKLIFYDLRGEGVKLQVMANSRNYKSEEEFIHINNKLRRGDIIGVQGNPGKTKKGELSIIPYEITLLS
# T1 sequence (Q15046 72-597, stated change not applied): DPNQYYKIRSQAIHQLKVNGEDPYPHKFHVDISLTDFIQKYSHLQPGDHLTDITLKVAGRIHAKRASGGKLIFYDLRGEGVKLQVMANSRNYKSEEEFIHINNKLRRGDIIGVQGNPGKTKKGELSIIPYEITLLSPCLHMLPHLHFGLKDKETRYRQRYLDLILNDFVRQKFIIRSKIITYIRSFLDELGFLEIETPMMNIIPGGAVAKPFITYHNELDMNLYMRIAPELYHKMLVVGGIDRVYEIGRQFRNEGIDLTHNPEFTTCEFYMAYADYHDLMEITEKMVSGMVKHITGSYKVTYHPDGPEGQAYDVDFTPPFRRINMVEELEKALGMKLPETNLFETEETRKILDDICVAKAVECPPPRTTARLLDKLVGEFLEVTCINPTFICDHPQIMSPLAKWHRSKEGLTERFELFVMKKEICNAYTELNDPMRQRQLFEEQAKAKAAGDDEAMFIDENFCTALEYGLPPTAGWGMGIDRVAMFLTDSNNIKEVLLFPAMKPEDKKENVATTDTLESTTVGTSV
# T4 sequence (Q15046 whole entry): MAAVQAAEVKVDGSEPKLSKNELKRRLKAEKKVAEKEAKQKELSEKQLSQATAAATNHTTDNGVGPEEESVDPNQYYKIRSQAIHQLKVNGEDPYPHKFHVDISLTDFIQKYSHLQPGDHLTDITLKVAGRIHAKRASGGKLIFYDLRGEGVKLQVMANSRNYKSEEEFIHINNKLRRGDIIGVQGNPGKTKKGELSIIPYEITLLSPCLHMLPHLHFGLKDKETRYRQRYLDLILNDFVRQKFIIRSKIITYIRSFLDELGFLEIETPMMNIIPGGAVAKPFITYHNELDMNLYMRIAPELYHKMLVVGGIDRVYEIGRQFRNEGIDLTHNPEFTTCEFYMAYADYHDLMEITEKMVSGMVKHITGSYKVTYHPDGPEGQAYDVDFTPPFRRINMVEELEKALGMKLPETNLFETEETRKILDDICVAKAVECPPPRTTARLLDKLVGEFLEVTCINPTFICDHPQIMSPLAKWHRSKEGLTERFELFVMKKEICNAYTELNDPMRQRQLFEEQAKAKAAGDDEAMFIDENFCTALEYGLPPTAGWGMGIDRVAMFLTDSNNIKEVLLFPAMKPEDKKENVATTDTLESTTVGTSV
# T3 sequence (Q15046 1-200): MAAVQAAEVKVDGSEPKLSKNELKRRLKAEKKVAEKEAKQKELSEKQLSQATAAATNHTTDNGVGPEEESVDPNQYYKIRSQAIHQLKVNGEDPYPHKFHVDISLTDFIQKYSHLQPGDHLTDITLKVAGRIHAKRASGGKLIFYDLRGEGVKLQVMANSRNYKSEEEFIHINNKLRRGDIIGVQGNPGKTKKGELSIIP
# T2 sequence (Q15046 2-597 T52D): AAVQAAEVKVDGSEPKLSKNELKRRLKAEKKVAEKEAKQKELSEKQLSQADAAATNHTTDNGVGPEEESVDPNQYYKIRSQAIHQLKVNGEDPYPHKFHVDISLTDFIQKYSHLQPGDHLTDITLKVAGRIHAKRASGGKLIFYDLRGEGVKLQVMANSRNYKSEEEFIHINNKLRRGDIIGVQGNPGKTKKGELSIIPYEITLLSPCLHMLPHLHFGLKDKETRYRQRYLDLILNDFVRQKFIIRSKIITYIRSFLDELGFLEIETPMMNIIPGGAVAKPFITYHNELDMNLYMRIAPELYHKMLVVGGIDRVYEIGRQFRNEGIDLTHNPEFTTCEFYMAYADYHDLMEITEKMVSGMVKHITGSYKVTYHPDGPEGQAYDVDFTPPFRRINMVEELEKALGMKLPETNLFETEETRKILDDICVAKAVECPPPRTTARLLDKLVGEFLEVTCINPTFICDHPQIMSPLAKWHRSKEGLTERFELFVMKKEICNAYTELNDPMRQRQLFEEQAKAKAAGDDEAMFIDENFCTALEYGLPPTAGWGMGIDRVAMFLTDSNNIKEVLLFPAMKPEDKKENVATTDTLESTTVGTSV
Binder,binding result [1],binding result [2],binding result [3],binding result [4],Kd (KRS 1-207 aa) [nM],koff (KRS 1-207 aa) [s⁻¹],kon (KRS 1-207 aa) [M⁻¹ s⁻¹]
B1,no binding,binds,binds,binds,,,
B2,,,,,1.05,0.00328,3.13e+06
